# Results published in the supplement of paper PMC9233669.
# Variants at the floor of the assay were thinned out.
# Experiments:
# biotinyl-Met-oxazolone = assay: self-aminoacylation, catalytic enhancement (BMO) (fold over background); higher = more active; k-Seq, kA / k0A0; sequences stand for … in GGGAAUGGAUCCACAUCUACGAAUUC…UUCACUGCAGACUUGACGAAGCUG
# Method in brief: (§1)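 Each biotinyl-aminoacyl-oxazolone, at 2–1250 μM, was incubated with mutagenized RNA pools (0.43 μM) carrying a 21-nt variable region. The 50 μL reactions contained HEPES/NaCl/KCl/MgCl2/CaCl2 buffer with 5% acetonitrile at pH 6.9–7.0 and ran for 90 minutes at room temperature. After streptavidin capture, RNA was measured by qPCR in triplicate and by Illumina sequencing, and catalytic enhancement was calculated as median kA over the uncatalyzed rate from a pseudo-first-order fit of per-sequence fraction reacted.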
# biotinyl-Phe-oxazolone = assay: self-aminoacylation, catalytic enhancement (BFO) (fold over background); higher = more active; k-Seq, kA / k0A0; sequences stand for … in GGGAAUGGAUCCACAUCUACGAAUUC…UUCACUGCAGACUUGACGAAGCUG
# Method in brief: as §1
# biotinyl-Leu-oxazolone = assay: self-aminoacylation, catalytic enhancement (BLO) (fold over background); higher = more active; k-Seq, kA / k0A0; sequences stand for … in GGGAAUGGAUCCACAUCUACGAAUUC…UUCACUGCAGACUUGACGAAGCUG
# Method in brief: as §1
# biotinyl-Trp-oxazolone = assay: self-aminoacylation, catalytic enhancement (BWO) (fold over background); higher = more active; k-Seq, kA / k0A0; sequences stand for … in GGGAAUGGAUCCACAUCUACGAAUUC…UUCACUGCAGACUUGACGAAGCUG
# Method in brief: as §1
# biotinyl-Val-oxazolone = assay: self-aminoacylation, catalytic enhancement (BVO) (fold over background); higher = more active; k-Seq, kA / k0A0; sequences stand for … in GGGAAUGGAUCCACAUCUACGAAUUC…UUCACUGCAGACUUGACGAAGCUG
# Method in brief: as §1
# biotinyl-Ile-oxazolone = assay: self-aminoacylation, catalytic enhancement (BIO) (fold over background); higher = more active; k-Seq, kA / k0A0; sequences stand for … in GGGAAUGGAUCCACAUCUACGAAUUC…UUCACUGCAGACUUGACGAAGCUG
# Method in brief: as §1
Sequence,self-aminoacylation (biotinyl-Met-oxazolone),self-aminoacylation (biotinyl-Phe-oxazolone),self-aminoacylation (biotinyl-Leu-oxazolone),self-aminoacylation (biotinyl-Trp-oxazolone),self-aminoacylation (biotinyl-Val-oxazolone),self-aminoacylation (biotinyl-Ile-oxazolone)
CUAAUUCAAACAAUCGGUCUA [Fam1A.1 aminoacylation ribozyme variant],0.549,1.65,0.497,0.635,0.593,0.612
GGUACCCUGGUCAUCGAGUGA [Fam2.1 aminoacylation ribozyme variant],11.2,38.7,12.6,16.4,6.65,6.93
CUACUUCAAAGAAUCGGUGUG [Fam1A.1 aminoacylation ribozyme variant],0.905,1.04,1.28,1.02,0.803,0.994
CUACUUCAAACAAUCGGUCAU [Fam1A.1 aminoacylation ribozyme variant],0.666,4.39,0.892,1.88,1.01,0.892
CUAAUUCAAACAAUCGCUCUG [Fam1A.1 aminoacylation ribozyme variant],0.668,0.713,0.527,0.67,0.653,0.628
AAGCUUGCUAAUAGUCGAAAG [Fam3.1 aminoacylation ribozyme variant],1.73,3.53,1.16,1.88,1.35,1.58
CUACCUCAAACAAUCGGUUUG [Fam1A.1 aminoacylation ribozyme variant],0.938,2.48,0.715,1.56,1.16,0.904
AUUCACACAGGUCAUCGGGUG [Fam2.2 aminoacylation ribozyme variant],5.6,39.6,7.14,5.26,4.47,4.03
AUUGCCCUGGUCAUCGAGUAA [Fam2.1 aminoacylation ribozyme variant],8.54,28.4,8.75,8.07,4.02,3.56
AUUCACCUAGGUAAGCGGGUG [Fam2.2 aminoacylation ribozyme variant],2.73,14.3,2.75,2.31,1.48,1.9
AUUACCCUGGCUAUCGAGUGA [Fam2.1 aminoacylation ribozyme variant],2.14,4.17,2.35,2.49,1.82,1.54
CUCCUACAAACAAUCGGUCUG [Fam1A.1 aminoacylation ribozyme variant],0.838,0.939,0.873,0.924,0.693,0.836
CUACACUUCAGGCAAUCGGUC [Fam1B.1 aminoacylation ribozyme variant],1.01,1.49,0.97,0.839,1.01,1
AAGUUUGCUAAUAAUGGCAAG [Fam3.1 aminoacylation ribozyme variant],0.599,0.786,0.479,0.585,0.727,0.644
CCACACGUCAAGCAAUCAGUC [Fam1B.1 aminoacylation ribozyme variant],0.665,0.738,0.713,0.482,0.88,0.647
CUGCUUCAUACAAUCGGUCUG [Fam1A.1 aminoacylation ribozyme variant],0.69,0.639,0.628,0.32,0.602,0.671
CCACACUUUAAGCAUUCGGUC [Fam1B.1 aminoacylation ribozyme variant],1.01,1.05,1.21,1.36,1.3,1.39
AUUACCCUGGUCAUCGACUGC [Fam2.1 aminoacylation ribozyme variant],0.555,0.441,0.839,0.371,0.722,0.701
AUUUACCUAGGUCAUUGGGUG [Fam2.2 aminoacylation ribozyme variant],3.54,19.7,3.79,3.11,2.26,2.34
AUUCACCUAGGUCAUGGGAUG [Fam2.2 aminoacylation ribozyme variant],0.66,0.397,0.611,0.315,0.657,0.596
CCACACUUCAAGCAAUCGGCA [Fam1B.1 aminoacylation ribozyme variant],0.777,1.07,1.59,1.28,1.37,1.18

Sequence,self-aminoacylation (biotinyl-Met-oxazolone),self-aminoacylation (biotinyl-Phe-oxazolone),self-aminoacylation (biotinyl-Leu-oxazolone),self-aminoacylation (biotinyl-Trp-oxazolone),self-aminoacylation (biotinyl-Val-oxazolone),self-aminoacylation (biotinyl-Ile-oxazolone)
AUCCACCUAGGUCAUCGAGUG [Fam2.2 aminoacylation ribozyme variant],7.89,17.4,10.3,5.78,5.17,6.55
CUUCUUCAAACAACCGGUCUG [Fam1A.1 aminoacylation ribozyme variant],0.98,0.852,0.961,0.846,0.949,1.11
CUACUUCAAACCAUCGGCCUG [Fam1A.1 aminoacylation ribozyme variant],1.63,1.51,1.45,1.71,1.94,1.82
AAGUUUGCCAAUAGUCGCAUG [Fam3.1 aminoacylation ribozyme variant],1.79,1.7,1.45,1.56,1.59,1.5
CCACACUUUAAGAAAUCGGUC [Fam1B.1 aminoacylation ribozyme variant],0.607,0.835,0.782,0.727,0.663,0.841
AUUCACCUAGGUCAUCGGUAG [Fam2.2 aminoacylation ribozyme variant],0.838,0.533,0.606,0.372,0.836,0.626
CUUCACCUAAGUCAUCGGGUG [Fam2.2 aminoacylation ribozyme variant],6.58,42.2,8.79,5.5,5.22,4.46
AUUACCCUGGUGAUCGAAUGA [Fam2.1 aminoacylation ribozyme variant],0.846,0.432,1.02,0.949,1.09,0.957
AUUAACCUAGGGCAUCGGGUG [Fam2.2 aminoacylation ribozyme variant],2.86,14.1,3.09,2.76,2.15,2.45
AGGUUUGCUAAUAGUCCCAAG [Fam3.1 aminoacylation ribozyme variant],0.915,4.38,0.779,1.97,0.872,0.901
AUUACCCAGGUUAUCGAGUGA [Fam2.1 aminoacylation ribozyme variant],9.6,50.4,9.68,11.6,4.25,3.94
UACUUUGCUAAUAGUCGCAAG [Fam3.1 aminoacylation ribozyme variant],1.66,2.71,1.86,1.46,1.33,1.75
GUUACCCUGAUCAUCGAGUGA [Fam2.1 aminoacylation ribozyme variant],8.85,32.3,9.43,11.1,4.23,3.61
AUUAUCCUGGUCAUCGAGUGC [Fam2.1 aminoacylation ribozyme variant],1.77,1.72,2.16,0.981,1.25,1.29
AUUACAGUGGUCAUCGAGUGA [Fam2.1 aminoacylation ribozyme variant],1.87,1.09,1.44,1.78,1.76,1.75
AAGUUUGCCAAUAGUCGCGAG [Fam3.1 aminoacylation ribozyme variant],1.96,11.6,2.25,3.77,2.09,1.61
CUUACCCUGGUCAUCGAUUGA [Fam2.1 aminoacylation ribozyme variant],0.863,0.863,0.839,1.34,0.929,0.751
AUUAACCUACGUCAUCGGGUG [Fam2.2 aminoacylation ribozyme variant],6.52,47.5,8.3,5.8,3.84,3.99
AUUACCUUGGUCAUCGCGUGA [Fam2.1 aminoacylation ribozyme variant],17.3,130,19.2,19.5,9.23,7.37
GAGUUUGCUAAUAGUCGCGAG [Fam3.1 aminoacylation ribozyme variant],1.63,1.76,1.47,2.17,1.38,1.55
AUUACCCUGGUCAUCGAAUGC [Fam2.1 aminoacylation ribozyme variant],0.827,0.567,0.723,0.726,0.68,1.04
